Source: publication PMC7519303

Target: SgmX-Strep (C-terminal Strep-tagged SgmX variant) (M. xanthus)
Assay: SDS/PAGE of the purified protein; purified SgmX-Strep; band of ~233 kDa, heat- and detergent-resistant dimer

SgmX-Strep (C-terminal Strep-tagged SgmX variant) (natural protein)
stoichiometry N: 2
